From patent US20240383996A1 (SHANGHAI HENLIUS BIOTECH, published 2024) come the findings set out here.

The chains are these.
T1: Recombinant human OX40 extracellular domain fused to human IgG1 Fc (human, UniProt P43489 29-214)
T1 construct: Produced in-house; also called OX40 ECD-Fc; human OX40 ECD-Fc; not shown: human IgG1 Fc
T1 sequence: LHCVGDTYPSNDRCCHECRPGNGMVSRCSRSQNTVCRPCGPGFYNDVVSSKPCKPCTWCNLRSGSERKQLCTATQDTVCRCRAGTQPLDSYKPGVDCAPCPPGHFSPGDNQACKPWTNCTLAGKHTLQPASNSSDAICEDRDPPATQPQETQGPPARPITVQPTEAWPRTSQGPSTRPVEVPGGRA

T2: Human OX40 expressed on transfected Jurkat or CHO cells (human, UniProt P43489 29-277)
T2 construct: also called human OX40/Jurkat; human OX40/CHO
T2 sequence: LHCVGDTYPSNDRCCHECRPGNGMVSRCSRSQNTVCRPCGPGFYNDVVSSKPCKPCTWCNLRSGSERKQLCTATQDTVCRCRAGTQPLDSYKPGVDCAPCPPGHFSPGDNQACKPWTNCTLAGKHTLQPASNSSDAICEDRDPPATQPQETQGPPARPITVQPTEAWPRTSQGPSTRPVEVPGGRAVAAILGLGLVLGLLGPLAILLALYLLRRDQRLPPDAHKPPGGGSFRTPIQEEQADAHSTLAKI

T3: Cynomolgus OX40 expressed on transfected CHO cells (cynomolgus)
T3 chain: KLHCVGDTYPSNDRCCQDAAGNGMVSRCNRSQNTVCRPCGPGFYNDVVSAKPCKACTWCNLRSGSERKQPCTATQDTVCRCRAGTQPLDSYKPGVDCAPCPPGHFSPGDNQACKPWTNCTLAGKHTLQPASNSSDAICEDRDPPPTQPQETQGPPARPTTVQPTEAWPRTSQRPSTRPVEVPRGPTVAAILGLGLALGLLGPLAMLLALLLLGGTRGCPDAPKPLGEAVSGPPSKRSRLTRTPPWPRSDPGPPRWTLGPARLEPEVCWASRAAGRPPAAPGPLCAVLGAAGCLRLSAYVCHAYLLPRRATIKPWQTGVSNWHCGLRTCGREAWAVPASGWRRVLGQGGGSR

T4: Fc-fused mouse OX40 ECD (mouse, UniProt P47741 20-211)
T4 construct: extracellular domain; also called recombinant mouse OX40 ECD; not shown: Fc
T4 sequence (looked up): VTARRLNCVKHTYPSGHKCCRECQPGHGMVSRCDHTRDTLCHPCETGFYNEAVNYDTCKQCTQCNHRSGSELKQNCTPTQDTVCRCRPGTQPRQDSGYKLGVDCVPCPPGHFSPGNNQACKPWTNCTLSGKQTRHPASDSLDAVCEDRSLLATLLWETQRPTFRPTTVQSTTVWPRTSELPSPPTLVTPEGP

T5: Human CTLA4 expressed on transfected CHO or Jurkat cells (human, UniProt P16410 36-222)
T5 construct: also called human CTLA4/CHO; human CTLA4/Jurkat
T5 sequence: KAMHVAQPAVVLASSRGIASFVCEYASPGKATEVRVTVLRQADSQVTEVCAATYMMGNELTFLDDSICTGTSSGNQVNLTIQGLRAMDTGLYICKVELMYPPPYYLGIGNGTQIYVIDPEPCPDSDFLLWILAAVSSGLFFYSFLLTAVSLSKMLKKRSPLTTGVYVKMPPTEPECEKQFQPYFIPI

B1: 1B3 VHH-Fc bivalent antibody (antibody, human IgG1, V domains shown)
VH: EVQLVESGGGLVQPGGSLRLSCAASGPLGMPSIAWFRQAPGKGLEFVSGIAWSTGDTYYADSVKGRFTISRDNSKNTLYLQMNSLRAEDTAVYYCAADTQVHYMGRHDIRDREEYDYWGQGTLVTVSS
notes: also called 1B3-bivalent
B2: 1B3 tetravalent anti-OX40 antibody (1B3 VHH with GS linker on CH1 and on CL of human IgG1) (antibody, V domains shown)
V domain 1: B1 VH
V domain 2: B1 VH
notes: Four-chain format; The heavy and light variable regions of human IgG1 are replaced by the VHH
B3: 2B7 VHH-Fc bivalent antibody (antibody, human IgG1, V domains shown)
VH: B1 VH with M30A, Q100S, R112Y
notes: also called 2B7-bivalent
B4: 2B7 tetravalent anti-OX40 antibody (2B7 VHH with GS linker on CH1 and on CL of human IgG1) (antibody, V domains shown)
V domain 1: B1 VH with M30A, Q100S, R112Y
V domain 2: B1 VH with M30A, Q100S, R112Y
B5: 5E10 llama VHH (VHH)
VHH: QVKLEESGGGSVQSGGSLRLACSASGPLGYPSIAWFRQVTGKDQEFVAGIAWSGGDTYYADSVKGRFAISRDTDRNTVELQMNNLKPEDTAVYYCAADTVVHYMGRHDIRDREEYDHWGPGTQVTVSS
notes: VHH secreted into the culture supernatant from phagemid pADL-23c; also called c5E10 VHH
B6: c5E10 chimeric bivalent antibody (llama VHH clone 5E10 fused to human IgG1 Fc) (antibody, V domains shown)
VH: B5 VHH with P120Q
notes: Bivalent VHH-Fc, human IgG1 Fc; also called c5E10-Fc; c5E10-bi
B7: 4H2 VHH-Fc bivalent antibody (antibody, human IgG1, V domains shown)
VH: B1 VH with M30Y, Q100V, R112A
notes: Humanized VHH fused to human IgG1 Fc
B8: 4A6B VHH-Fc bivalent antibody (antibody, human IgG1, V domains shown)
VH: B1 VH with M30Y, S32L, T54D, Q100V, E113S
notes: as for B7
B9: 3B8 VHH-Fc bivalent antibody (antibody, human IgG1, V domains shown)
VH: B1 VH with M30Q, T54S, Q100R
notes: as for B7
B10: 2D9 VHH-Fc bivalent antibody (antibody, human IgG1, V domains shown)
VH: B1 VH with M30Y, S32N, Q100V, E114V
notes: as for B7
B11: 1G9B VHH-Fc bivalent antibody (antibody, human IgG1, V domains shown)
VH: B1 VH with M30Y, S32H, T54G, T57S, Q100L, R110S
notes: as for B7
B12: 2D3B VHH-Fc bivalent antibody (antibody, human IgG1, V domains shown)
VH: B1 VH with M30S, Q100V, G105V, E114S
notes: as for B7
B13: 1B7 VHH-Fc bivalent antibody (antibody, human IgG1, V domains shown)
VH: B1 VH with M30E, T54S, Q100V
notes: as for B7
B14: 1F4B VHH-Fc bivalent antibody (antibody, human IgG1, V domains shown)
VH: B1 VH with M30T, G49A, T54Q, Q100V, R112E
notes: as for B7
B15: 4E8 VHH-Fc bivalent antibody (antibody, human IgG1, V domains shown)
VH: B1 VH with M30Y, I33F, T54S, Q100V, H102G, R112L
notes: as for B7
B16: 4D10 VHH-Fc bivalent antibody (antibody, human IgG1, V domains shown)
VH: B1 VH with M30Y, S32F, Q100V
notes: as for B7
B17: 1E6 VHH-Fc bivalent antibody (antibody, human IgG1, V domains shown)
VH: B1 VH with M30L, Q100V, R106Q, E113V
notes: as for B7
B18: 4F5 VHH-Fc bivalent antibody (antibody, human IgG1, V domains shown)
VH: B1 VH with M30L, A51V, T54G, Q100K, H107F, R112L
notes: as for B7
B19: 1C8 VHH-Fc bivalent antibody (antibody, human IgG1, V domains shown)
VH: B1 VH with M30L, S53E, T54G, Q100V, R112Y
notes: as for B7
B20: Ipilimumab (anti-CTLA4 antibody) (antibody, V domains shown)
VH: QVQLVESGGGVVQPGRSLRLSCAASGFTFSSYTMHWVRQAPGKGLEWVTFISYDGNNKYYADSVKGRFTISRDNSKNTLYLQMNSLRAEDTAIYYCARTGWLGPFDYWGQGTLVTVSS
VL: not shown

Substitutions are numbered along the chain they refer to.

The target in one experiment is T1, Recombinant human OX40 extracellular …. As to the kind of experiment: Octet, human OX40 ECD-Fc immobilized on a biosensor chip. From the text: The tetravalent antibodies were produced from transiently transfected ExpiCHO cells, and purified by Protein A affinity column.
(In BLI a coated tip is dipped into the sample, and binding shifts an interference pattern.)
For B1, the Kd (in general, the concentration at which binding is half-saturated) is 3.83 nM and the koff (in general, the first-order rate constant of dissociation) was 0.000391 s⁻¹. For the molecule B2, the Kd stood at 6.57 nM and the koff turned out to be 0.000646 s⁻¹.

On to B3, for which the Kd is 3.68 nM and the koff worked out at 0.000398 s⁻¹. For B4, in that order: 6.94 nM and 0.000763 s⁻¹.

The target in a further experiment is T2, Human OX40 expressed on transfected …. Put plainly: flow cytometry on human OX40-expressing CHO cells, Geo MFI. On the procedure: (§1) FIGS. 4A-4D depict whole cell binding of anti-OX40 antibodies to human and cynomolgus OX40 assessed by flow cytometry.
(§2) Bivalent antibodies of these 15 clones were made by fusing VHH to human IgG1 Fc, expressed in ExpiCHO cells, and purified by Protein A affinity column. Binding affinity of the VHH-Fc bivalent antibodies to human or cynomolgus OX40 was evaluated by flow cytometry using Jurkat cells transfected with human OX40 (human OX40/Jurkat) (FIG. 2A), CHO cells transfected with human OX40 (human OX40/CHO) (FIG. 2B), and CHO cells transfected with cynomolgus OX40 (cyno OX40/CHO) (FIG. 2C). These antibodies with indicated concentrations were incubated with the cells in FACS buffer (3% FBS in PBS) on ice for 30 min, and the free antibodies were washed out with FACS buffer. Alexa fluor488 conjugated anti-human IgG Fc antibody (1:500) (Alexa Fluor488 AffiniPure goat anti-human IgG, Fcg fragment specific, Jackson labs) was further incubated with the cells on ice for 30 min. Cells were washed to remove free antibodies prior to FACS analysis using CytoFlex (Beckman Coulter). Binding affinity was calculated using GraphPad Prism three parameter logistic equation.
(§3) The binding affinity of the anti-OX40 antibodies was further evaluated by flow cytometry using human OX40/Jurkat cells and human OX40/CHO cells using protocols described above. […] The cross-reactivity of the antibodies to cynomolgus OX40 was assessed by FACS analysis using cyno OX40/CHO cells.
(In general: A flow cytometer gives signals particle by particle.)
Take B1: the EC50 (as a rule, the concentration needed to bring the measured effect to its halfway point) is 2.69 nM. Same read-out and setting: the figure for B2 is 2.01 nM; for B3 it is 3.11 nM; for B4 it is 1.96 nM.

Another experiment shares this target. As to the kind of experiment: flow cytometry on human OX40-expressing Jurkat cells, Geo MFI. On the procedure: as §1, §2, §3
With B1, it took 4.25 nM to reach a half-maximal effect (EC50). Still for that read-out and setting: the figure for B2 is 0.16 nM; for B3 it is 9.79 nM.

B4 registered an EC50 of 0.2 nM.

For another experiment, the target named is T3, Cynomolgus OX40 expressed on …. As to the kind of experiment: flow cytometry on cynomolgus OX40-expressing CHO cells, Geo MFI. On the procedure: as §1
as §2, with “Cells were washed to remove free antibodies prior to FACS analysis using CytoFlex (Beckman Coulter).” left out
as §3
The molecule B2 had an EC50 of 1.93 nM. B4 had an EC50 of 1.98 nM.

The target in another experiment is T1, Recombinant human OX40 extracellular …. As to the kind of experiment: ELISA of VHH supernatants on plates pre-coated with human OX40 ECD-Fc or human OX40 ECD-His. In general terms: ELISA stands for enzyme-linked immunosorbent assay.
Source text: Colonies were picked and cultured in 2×YT medium with IPTG to secrete VHH antibodies. Supernatants with VHH antibodies were screened by ELISA using human OX40 ECD-Fc or human OX40 ECD-His pre-coated plates.
Regarding B5, the binding result was “binds”.

Another experiment deals with T2, Human OX40 expressed on transfected …. Put plainly: flow cytometry, whole cell binding to human OX40-expressing Jurkat cells, Geo MFI.
B2: the EC50 was 0.15 nM. B4 yielded an EC50 of 0.14 nM.

For a further experiment the target is unchanged. Described as above. This is another data set of the same source.
In turn, B4 displayed an EC50 of 0.39 nM.

Another experiment concerns the target T4, Fc-fused mouse OX40 ECD. As to the kind of experiment: ELISA: plate coated with Fc-fused mouse OX40 ECD, biotin-labeled c5E10, HRP-avidin, OD450. As for the experimental part:
The protein was expressed in ExpiCHO cells, and purified by Protein A affinity chromatography. […] Briefly, 1 μg/ml of Fc-fused human or mouse OX40 ECD was coated in a 96-well high binding plate at 4° C. overnight.
Regarding B6, the binding result was “no binding”.

For the next experiment, the target named is T2, Human OX40 expressed on transfected …. As to the kind of experiment: flow cytometry on human OX40-transfected Jurkat cells, Alexa Fluor488 anti-human IgG Fc, Geo MFI. On the procedure: FIGS. 2A-2C depict whole cell binding of humanized anti-OX40 antibodies to human or cynomolgus OX40 assessed by flow cytometry. Human OX40-expressing Jurkat cells (FIG. 2A), human OX40-expressing CHO cells (FIG. 2B) and cynomolgus OX40-expressing CHO cells (FIG. 2C) were incubated with indicated anti-OX40 bivalent antibodies, and then stained with Alexa Fluor488 conjugated anti-human IgG Fc antibody. The fluorescence intensity was measured by flow cytometry.
as §2
As to B7, the binding result is listed as “binds”. Consider B8, for which the binding result is given as “binds”. B9: the binding result was “binds”. Same read-out and setting: to B10 belongs “binds”; to B11, “binds”.

As for B12, the binding result is given as “binds”. On the same count and under the same terms, the entry for B13 is “binds”; for B14 it is “binds”. The same measure, in the same setting: the entry for B15 is “binds”. The same measure, in the same setting: the entry for B16 is “binds”; for B17 it is “binds”. As to B18, the binding result is “binds”. Still for that read-out and setting: the entry for B19 is “binds”.

The target of a further experiment is T5, Human CTLA4 expressed on transfected …. Put plainly: flow cytometry, whole cell binding to human CTLA4-expressing CHO cells, Alexa Fluor488 anti-human IgG Fc, Geo MFI.
For B6, the binding result is on record as “no binding”.

Another experiment addresses T2, Human OX40 expressed on transfected …. As to the kind of experiment: flow cytometry, whole cell binding to human OX40-expressing Jurkat cells, Alexa Fluor488 anti-human IgG Fc, Geo MFI.
As for B20, the binding result is “no binding”.
